Test results from paper PMC2663784.
Where “and” joins values, the source holds several entries; their conditions need not be identical. Identical values can stand only once.

Target: humanized 3S193 VL-0-VH scFv multimer (humanized (mouse CDRs on human frameworks))
Test: SEC

B1: humanized 3S193 VL-0-VH scFv multimer (scFv, V domains shown)
VH: EVQLVESGGGVVQPGRSLRLSCSTSGFTFSDYYMYWVRQAPGKGLEWVAYMSNVGAITDYPDTVKGRFTISRDNSKNTLFLQMDSLRPEDTGVYFCARGTRDGSWFAYWGQGTPVTVSS
VL: DIQMTQSPSSLSASVGDRVTITCRSSQRIVHSNGNTYLEWYQQTPGKAPKLLIYKVSNRFSGVPSRFSGSGSGTDFTFTISSLQPEDIATYYCFQGSHVPFTFGQGTKLQIT
stoichiometry N: 3 and 4
